# Assay results taken from patent US20110165265A1 (FUNDACI GEN MICA CRG, published 2011).
# B1: DcR2-Ig receptor chimera (R&D Systems) (Fc fusion, UniProt Q9UBN6 56-211, looked up, not shown: a dimerising Fc or GST)
# chain: ATIPRQDEVPQQTVAPQQQRRSLKEEECPAGSHRSEYTGACNPCTEGVDYTIASNNLPSCLLCTVCKSGQTNKSSCTTTRDTVCQCEKGSFQDKNSPEMCRTCRTGCPRGMVKVSNCTPRSDIKCKNESAASSTGKTPAAEETVTTILGMLASPYH
# B2: DcR1-Ig receptor chimera (R&D Systems) (Fc fusion, UniProt O14798 26-221, looked up, not shown: a dimerising Fc or GST)
# chain: ATTARQEEVPQQTVAPQQQRHSFKGEECPAGSHRSEHTGACNPCTEGVDYTNASNNEPSCFPCTVCKSDQKHKSSCTMTRDTVCQCKEGTFRNENSPEMCRKCSRCPSGEVQVSNCTSWDDIQCVEEFGANATVETPAAEETMNTSPGTPAPAAEETMNTSPGTPAPAAEETMTTSPGTPAPAAEETMTTSPGTPA
# B3: TRAIL variant D269H (114-281) (ligand)
# chain: MVRERGPQRVAAHITGTRGRSNTLSSPNSKNEKALGRKINSWESSRSGHSFLSNLHLRNGELVIHEKGFYYIYSQTYFRFQEEIKENTKNDKQMVQYIYKYTSYPDPILLMKSARNSCWSKDAEYGLYSIYQGGIFELKENDRIFVSVTNEHLIDMHHEASFFGAFLVG
# notes: All mutants are said to be of the length 114-281; also called rhTRAIL carrying mutation D269H; DR5-selective variant
# B4: TRAIL variant D269HE195R (114-281) (ligand)
# chain: MVRERGPQRVAAHITGTRGRSNTLSSPNSKNEKALGRKINSWESSRSGHSFLSNLHLRNGELVIHEKGFYYIYSQTYFRFQERIKENTKNDKQMVQYIYKYTSYPDPILLMKSARNSCWSKDAEYGLYSIYQGGIFELKENDRIFVSVTNEHLIDMHHEASFFGAFLVG
# notes: All mutants are said to be of the length 114-281; also called TRAIL-DR5; DE
# What was measured:
# [1] = molecular target: B3; experiment: cell-based or functional assay
# [2] = molecular target: wild-type TRAIL (recombinant human soluble TRAIL, amino acids 114-281) (human, UniProt P50591 114-281); experiment: cell-based or functional assay
# [3] = molecular target: B4; experiment: cell-based or functional assay
# [4] = molecular target: B2; experiment: SPR (Biacore 3000, 37 °C), DcR1-Ig captured on protein A, pre-steady state
# [5] = molecular target: B1; experiment: SPR (Biacore), DcR2-Ig captured on a protein A-modified CM5 chip, response in RU against ligand concentration (pre-steady state)
# [6] = molecular target: death receptor 5 (DR5) on the cell surface (human, UniProt O14763 56-440); experiment: cell-based or functional assay
# DR5-Ig = molecular target: T1, DR5-Ig (UniProt O14763 54-182); experiment: not stated there (SPR by the context of paragraph 339)
# T1 construct: also called sDR5; soluble recombinant DR5-Ig; not shown: Ig (Fc) part
# wild-type TRAIL (recombinant human soluble TRAIL, amino acids 114-281), sequence (P50591 114-281 limits assumed): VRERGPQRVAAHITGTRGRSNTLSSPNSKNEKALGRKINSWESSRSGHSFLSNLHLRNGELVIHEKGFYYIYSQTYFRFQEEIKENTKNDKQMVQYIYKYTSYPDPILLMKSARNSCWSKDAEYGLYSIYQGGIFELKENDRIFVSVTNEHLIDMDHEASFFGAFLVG
Binder,block of ligand-induced apoptosis of Colo205 cells (Annexin V) after pre-incubation of the ligand with soluble receptor [1],block of ligand-induced apoptosis of Colo205 cells (Annexin V) after pre-incubation of the ligand with soluble receptor [2] [µg/mL],block of ligand-induced apoptosis of Colo205 cells (Annexin V) after pre-incubation of the ligand with soluble receptor [3] [µg/mL],fold reduction of binding compared to wtTRAIL [4] [fold],binding result [5],rate of receptor activation relative to wtTRAIL [6] [fold],fold increase in kon compared to wtTRAIL (DR5-Ig) [fold]
B1,2 fold,,,,,,
B2,> 2 µg/mL,0.5,> 2,,,,
B3,,,,~20,binds,,
B4,,,,~20,binds,17,< 5
